Publication PMC5053906 (Neuron, 2016)

Target: the molecule itself
Test: single molecule subunit counting

B1: C-terminally GFP-tagged mGluR2 (receptor, rat, UniProt P31421 19-872, looked up)
chain: EGPAKKVLTLEGDLVLGGLFPVHQKGGPAEECGPVNEHRGIQRLEAMLFALDRINRDPHLLPGVRLGAHILDSCSKDTHALEQALDFVRASLSRGADGSRHICPDGSYATHSDAPTAVTGVIGGSYSDVSIQVANLLRLFQIPQISYASTSAKLSDKSRYDYFARTVPPDFFQAKAMAEILRFFNWTYVSTVASEGDYGETGIEAFELEARARNICVATSEKVGRAMSRAAFEGVVRALLQKPSARVAVLFTRSEDARELLAATQRLNASFTWVASDGWGALESVVAGSERAAEGAITIELASYPISDFASYFQSLDPWNNSRNPWFREFWEERFHCSFRQRDCAAHSLRAVPFEQESKIMFVVNAVYAMAHALHNMHRALCPNTTHLCDAMRPVNGRRLYKDFVLNVKFDAPFRPADTDDEVRFDRFGDGIGRYNIFTYLRAGSGRYRYQKVGYWAEGLTLDTSFIPWASPSAGPLPASRCSEPCLQNEVKSVQPGEVCCWLCIPCQPYEYRLDEFTCADCGLGYWPNASLTGCFELPQEYIRWGDAWAVGPVTIACLGALATLFVLGVFVRHNATPVVKASGRELCYILLGGVFLCYCMTFVFIAKPSTAVCTLRRLGLGTAFSVCYSALLTKTNRIARIFGGAREGAQRPRFISPASQVAICLALISGQLLIVAAWLVVEAPGTGKETAPERREVVTLRCNHRDASMLGSLAYNVLLIALCTLYAFKTRKCPENFNEAKFIGFTMYTTCIIWLAFLPIFYVTSSDYRVQTTTMCVSVSLSGSVVLGCLFAPKLHIILFQPQKNVVSHRAPTSRFGSAAPRASANLGQGSGSQFVPTVCNGREVVDSTTSSL
  stoichiometry N: 2
